Source: doi:10.1101/2020.09.09.290171 (bioRxiv, 2020)

Molecular target: T1, recombinant NRPD1 fused at its C-terminus to a FLAG epitope tag (Arabidopsis thaliana, UniProt Q9LQ02 1-1453)
T1 sequence: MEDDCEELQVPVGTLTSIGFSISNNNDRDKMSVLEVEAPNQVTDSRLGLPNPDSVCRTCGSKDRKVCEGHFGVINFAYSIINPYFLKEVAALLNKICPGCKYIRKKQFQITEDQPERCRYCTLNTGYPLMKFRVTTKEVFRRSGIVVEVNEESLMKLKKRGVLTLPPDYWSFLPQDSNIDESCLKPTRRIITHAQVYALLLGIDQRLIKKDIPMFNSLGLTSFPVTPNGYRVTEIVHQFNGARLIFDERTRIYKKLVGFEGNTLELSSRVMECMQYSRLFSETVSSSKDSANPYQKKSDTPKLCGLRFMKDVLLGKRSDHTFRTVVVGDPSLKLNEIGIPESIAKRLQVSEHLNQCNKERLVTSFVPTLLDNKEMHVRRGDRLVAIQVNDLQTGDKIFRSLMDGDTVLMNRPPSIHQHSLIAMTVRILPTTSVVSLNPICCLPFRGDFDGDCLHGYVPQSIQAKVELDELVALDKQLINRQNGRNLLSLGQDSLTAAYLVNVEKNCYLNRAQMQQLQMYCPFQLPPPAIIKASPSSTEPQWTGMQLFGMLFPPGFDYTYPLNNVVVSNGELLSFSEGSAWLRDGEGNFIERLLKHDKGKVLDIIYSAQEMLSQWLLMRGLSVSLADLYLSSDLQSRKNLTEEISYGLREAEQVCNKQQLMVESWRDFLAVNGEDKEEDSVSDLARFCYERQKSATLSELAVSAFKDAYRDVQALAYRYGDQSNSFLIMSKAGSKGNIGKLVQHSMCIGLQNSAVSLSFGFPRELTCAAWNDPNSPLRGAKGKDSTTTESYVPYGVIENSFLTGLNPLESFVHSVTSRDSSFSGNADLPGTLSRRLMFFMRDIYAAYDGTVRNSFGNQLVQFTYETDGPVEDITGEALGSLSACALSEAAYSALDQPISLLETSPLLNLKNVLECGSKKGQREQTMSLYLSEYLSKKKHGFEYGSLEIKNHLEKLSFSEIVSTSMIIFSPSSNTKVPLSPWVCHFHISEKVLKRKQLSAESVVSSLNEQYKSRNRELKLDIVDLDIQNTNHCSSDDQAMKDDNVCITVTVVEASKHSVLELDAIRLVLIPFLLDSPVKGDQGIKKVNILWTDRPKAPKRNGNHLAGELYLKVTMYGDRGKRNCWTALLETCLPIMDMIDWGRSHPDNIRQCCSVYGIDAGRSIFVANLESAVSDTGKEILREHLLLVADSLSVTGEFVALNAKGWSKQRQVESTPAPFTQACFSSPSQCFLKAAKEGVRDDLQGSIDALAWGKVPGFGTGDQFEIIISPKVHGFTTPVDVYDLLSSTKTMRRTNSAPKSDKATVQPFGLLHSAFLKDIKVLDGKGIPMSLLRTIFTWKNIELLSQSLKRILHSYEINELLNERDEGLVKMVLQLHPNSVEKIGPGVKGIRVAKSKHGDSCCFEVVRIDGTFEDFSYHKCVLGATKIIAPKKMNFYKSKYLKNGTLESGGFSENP
Experiment: co-IP

B1: recombinant RDR2 (RNA-DEPENDENT RNA POLYMERASE 2), wild type, with N-terminal V5 epitope and 6xHis tags (enzyme)
chain: MVSETTTNRSTVKISNVPQTIVADELLRFLELHLGEDTVFALEIPTTRDNWKPRDFARVQFTTLEVKSRAQLLSSQSKLLFKTHNLRLSEAYDDIIPRPVDPRKRLDDIVLTVGFPESDEKRFCALEKWDGVRCWILTEKRRVEFWVWESGDCYKIEVRFEDIIETLSCCVNGDASEIDAFLLKLKYGPKVFKRVTVHIATKFKSDRYRFCKEDFDFMWIRTTDFSGSKSIGTSTCFCLEVHNGSTMLDIFSGLPYYREDTLSLTYVDGKTFASAAQIVPLLNAAILGLEFPYEILFQLNALVHAQKISLFAASDMELIKILRGMSLETALVILKKLHQQSSICYDPVFFVKTQMQSVVKKMKHSPASAYKRLTEQNIMSCQRAYVTPSKIYLLGPELETANYVVKNFAEHVSDFMRVTFVEEDWSKLPANALSVNSKEGYFVKPSRTNIYNRVLSILGEGITVGPKRFEFLAFSASQLRGNSVWMFASNEKVKAEDIREWMGCFRKIRSISKCAARMGQLFSASRQTLIVRAQDVEQIPDIEVTTDGADYCFSDGIGKISLAFAKQVAQKCGLSHVPSAFQIRYGGYKGVIAVDRSSFRKLSLRDSMLKFDSNNRMLNVTRWTESMPCFLNREIICLLSTLGIEDAMFEAMQAVHLSMLGNMLEDRDAALNVLQKLSGENSKNLLVKMLLQGYAPSSEPYLSMMLRVHHESQLSELKSRCRILVPKGRILIGCMDEMGILEYGQVYVRVTLTKAELKSRDQSYFRKIDEETSVVIGKVVVTKNPCLHPGDIRVLDAIYEVHFEEKGYLDCIIFPQKGERPHPNECSGGDLDGDQFFVSWDEKIIPSEMDPPMDYAGSRPRLMDHDVTLEEIHKFFVDYMISDTLGVISTAHLVHADRDPEKARSQKCLELANLHSRAVDFAKTGAPAEMPYALKPREFPDFLERFEKPTYISESVFGKLYRAVKSSLAQRKPEAESEDTVAYDVTLEEAGFESFIETAKAHRDMYGEKLTSLMIYYGAANEEEILTGILKTKEMYLARDNRRYGDMKDRITLSVKDLHKEAMGWFEKSCEDEQQKKKLASAWYYVTYNPNHRDEKLTFLSFPWIVGDVLLDIKAENAQRQSVEEKTSGLVSI
binding result: binds
